Measured values published in paper PMC4282539.

Biological target: NNN-GFPglyc (GnTI CTS region fused to the glycosylation reporter GFPglyc) (Nicotiana tabacum (legend of Figure 1 and methods); the running text says N. benthamiana)
Test: FRET or BRET; two-photon FRET-FLIM in living N. benthamiana leaf epidermal cells, Golgi bodies, leaves treated with 25 uM latrunculin B; donor NNN-GFPglyc, acceptor CTS-mRFP; a decrease of the donor lifetime by 0.20 ns or 8% taken as interaction

| Substance | FRET efficiency E [%] | donor lifetime with acceptor (tau DA) [ns] | lifetime contrast (delta tau) [ns] |
| --- | --- | --- | --- |
| RNN-mRFP (chimeric CTS region: ST cytoplasmic tail, GnTI transmembrane domain and stem, fused to mRFP) (from UniProt P13721 1-9) | 10.8 | 2.18 | 0.26 |
| NNN-mRFP (GnTI CTS region fused to mRFP) (domain or fragment) | 14.6 | 2.08 | 0.36 |
